The record followed here is paper PMC6763431, “Methionine in a protein hydrophobic core drives tight interactions required for assembly of spider silk” (Nature Communications, 2019).

Series [1] addresses T1, wild-type N-terminal domain of major ampullate spidroin 1 (MaSp1) from Euprosthenops australis (Euprosthenops australis), Q05H60.
T1 chain: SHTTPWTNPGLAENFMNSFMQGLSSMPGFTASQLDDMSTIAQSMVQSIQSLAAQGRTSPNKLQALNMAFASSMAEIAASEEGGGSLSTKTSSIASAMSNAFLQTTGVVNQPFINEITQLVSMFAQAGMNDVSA
The series can be described thus: SEC-MALS; 20 mM MES, pH 6.0, ionic strength 60 mM (KCl), dimer conditions; µM sample concentration; dimer to monomers. As to conditions: remark: other sources report otherwise. (In gel filtration, larger molecules generally elute earlier.)

Series [2] concerns the target T2, AttoOxa11-modified L6-NTD mutant Q50C (Euprosthenops australis, AttoOxa11 (maleimide derivative) on the thiol of the engineered cysteine at position 50).
T2 chain: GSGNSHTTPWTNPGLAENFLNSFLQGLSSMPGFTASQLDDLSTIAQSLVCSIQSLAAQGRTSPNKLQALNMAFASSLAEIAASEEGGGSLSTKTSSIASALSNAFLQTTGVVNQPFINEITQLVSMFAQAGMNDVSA
The series can be described thus: MST; 40 nM AttoOxa11-modified L6-NTD Q50C with increasing concentrations of unlabelled L6-NTD, standard untreated capillaries, 50% heating power; bimolecular binding isotherm (pseudo-dimerization). As to conditions: both partners purified.

Series [3] deals with the molecule itself. The series is described as follows: SEC; high-resolution SEC with Trp fluorescence detection, Superdex-75 Increase 10/300, 0.8 ml/min, 20 mM MES, pH 6.0, ionic strength 20 mM (KCl); elution volume against protein concentration fitted to a monomer/dimer equilibrium; dimer to monomers.

B1: wild-type N-terminal domain of major ampullate spidroin 1 (MaSp1) from Euprosthenops australis, Q05H60 24-156 (domain or fragment)
chain: SHTTPWTNPGLAENFMNSFMQGLSSMPGFTASQLDDMSTIAQSMVQSIQSLAAQGRTSPNKLQALNMAFASSMAEIAASEEGGGSLSTKTSSIASAMSNAFLQTTGVVNQPFINEITQLVSMFAQAGMNDVSA
By stoichiometry N is commonly meant the number of molecules, sites or subunits per partner or assembly. Turning to B1, the stoichiometry N in series [1] is 2.

B2: L6-NTD (MaSp1 NTD from E. australis with all six core Met mutated to Leu) (domain or fragment)
chain: GSGNSHTTPWTNPGLAENFLNSFLQGLSSMPGFTASQLDDLSTIAQSLVQSIQSLAAQGRTSPNKLQALNMAFASSLAEIAASEEGGGSLSTKTSSIASALSNAFLQTTGVVNQPFINEITQLVSMFAQAGMNDVSA
Broadly, the Kd is the equilibrium constant for the complex coming apart. Low values mean a tighter complex, high ones a looser complex. As to B2, the Kd in series [2] stood at 3600 ± 1800 nM; in series [3], 1100 nM.
